The target of one experiment is SEL1L-S658P-FLAG (mouse). As to the kind of experiment: co-IP.
The target of a further experiment is SEL1L-G585D-FLAG (mouse). As to the kind of experiment: co-IP.

The molecule “HRD1 (endogenous, HEK293T) (from UniProt Q86TM6 1-617) (enzyme)” came in with a percent reduction of binding against WT in the experiment with SEL1L-S658P-FLAG (mouse) of 70%.

B1: OS9 (endogenous, HEK293T) (natural protein)
chain: GGVGSLNLEELSEMRYGIEILPLPVMGGQSQSSDVVIVSSKYKQRYECRLPAGAIHFQREREEETPAYQGPGIPELLSPMRDAPCLLKTKDWWTYEFCYGRHIQQYHMEDSEIKGEVLYLGYYQSAFDWDDETAKASKQHRLKRYHSQTYGNGSKCDLNGRPREAEVRFLCDEGAGISGDYIDRVDEPLSCSYVLTIRTPRLCPHPLLRPPPSAAPQAILCHPSLQPEEYMAYVQRQADSKQYGDKIIEELQDLGPQVWSETKSGVAPQKMAGASPTKDDSKDSDFWKMLNEPEDQAPGGEEVPAEEQDPSPEAADSASGAPNDFQNNVQVKVIRSPADLIRFIEELKGGTKKGKPNIGQEQPVDDAAEVPQREPEKERGDPERQREMEEEEDEDEDEDEDEDERQLLGEFEKELEGILLPSDRDRLRSEVKAGMERELENIIQETEKELDPDGLKKESERDRAMLALTSTLNKLIKRLEEKQSPELVKKHKKKRVVPKKPPPSPQPTEEDPEHRVRVRVTKLRLGGPNQDLTVLEMKRENPQLKQIEGLVKELLEREGLTAAGKIEIKIVRPWAEGTEEGARWLTDEDTRNLKEIFFNILVPGAEEAQKERQRQKELESNYRRVWGSPGGEGTGDLDEFDF
In the case of B1, the percent reduction of binding against WT with SEL1L-G585D-FLAG (mouse) turned out to be 90%.
